Assay results published in US20230295324A1 (published 2023).

Experiments:
[1] = biological target: T1, human OX40 on cells (CHO-K1/hu OX40) (human, UniProt P43489 29-277); assay: cell-based or functional assay
T1 sequence (looked up): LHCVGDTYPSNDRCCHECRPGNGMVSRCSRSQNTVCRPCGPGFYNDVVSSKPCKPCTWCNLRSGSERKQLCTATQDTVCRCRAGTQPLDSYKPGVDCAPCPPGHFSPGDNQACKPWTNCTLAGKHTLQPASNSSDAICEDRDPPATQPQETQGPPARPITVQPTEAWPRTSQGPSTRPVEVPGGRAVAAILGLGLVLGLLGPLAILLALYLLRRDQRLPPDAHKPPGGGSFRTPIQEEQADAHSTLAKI

[2] = biological target: T2, human CD40 on CHO-K1 cells (CHO-K1/hu CD40) (human, UniProt P25942 21-277); assay: flow cytometry on CHO-K1/hu CD40 cells
T2 construct: whole, on cells
Protocol: This example is intended to investigate the specificity of in vitro binding of anti-human OX40 HCAb monoclonal antibodies by detecting 3 receptors of the TNF tumor necrosis factor receptor superfamily and ICOS by flow cytometry. The antibody binding assay at the cellular level was performed using a CHO-K1 cell strain overexpressing human OX40 (CHO-K1/hu OX40), a CHO-K1 cell strain overexpressing human CD40 (CHO-K1/hu CD40, Beijing KYinno, #KC-1286), a CHO-K1 cell strain overexpressing human 4-1BB (CHO-K1/hu 4-1BB, Genscript, #M00538) and an HEK293 cell strain overexpressing human ICOS (HEK293T/ICOS, Genscript, #KC-0210). Briefly, these cells were digested and resuspended in F12K or DMEM complete medium, and the cell density was adjusted to 1×10⁶ cells/mL. The cells were seeded in a 96-well V-bottom plate at 100 μL/well, and centrifuged, and then the supernatant was discarded. Then, the test antibodies diluted in a 3-fold gradient were added at 100 μL/well. The cells were incubated at 4° C. for 1 h away from light. Thereafter, the cells in each well were rinsed twice with 100 μL of pre-cooled PBS, and centrifuged at 500 g at 4° C. for 5 min, and then the supernatant was discarded. […] Finally, the cells in each well were resuspended in 200 μL of pre-cooled PBS, and the fluorescence signal values were read using NovoCyte flow cytometer (ACEA Biosciences).

[3] = biological target: T3, human OX40 protein (Acro biosystem, #OX0-H5224) (human, UniProt P43489 29-216); assay: BLI, antibody on ProA sensor, 1:1 global fit
T3 construct: Bought recombinant protein
T3 sequence (looked up): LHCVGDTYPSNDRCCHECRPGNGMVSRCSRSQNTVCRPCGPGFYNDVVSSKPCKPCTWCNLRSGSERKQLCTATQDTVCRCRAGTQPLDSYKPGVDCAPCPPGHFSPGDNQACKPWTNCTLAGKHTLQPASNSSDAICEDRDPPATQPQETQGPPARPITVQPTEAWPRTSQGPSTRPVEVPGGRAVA
Protocol: (§1) The binding kinetics between the antigen and the antibody was analyzed by the Biolayer Interferometry (BLI) technique using an Octet Red 96e molecular interaction analyzer (Fortebio).
(§2) The association and dissociation signals between the OX40 antibodies and OX40 proteins were recorded by Octet Red 96 in real time. When data analysis was performed using Octet Data Analysis software (Fortebio, version 11.0), 0 nM was used as a reference hole, and reference subtraction was performed; the “1:1 Global fitting” method was selected to fit the data, and the kinetics parameters of the binding of antigens to antigen-binding proteins were calculated, with kon(1/Ms) values, kdis(1/s) values and KD(M) values obtained.

[4] = biological target: T4, cynomolgus monkey OX40 protein (Novoprotein, #CB17) (cynomolgus monkey); assay: BLI, antibody on ProA sensor, 1:1 global fit
T4 construct: Bought recombinant protein; also called cyno OX40
Protocol: as §1, §2

[5] = biological target: T1, human OX40 on cells (CHO-K1/hu OX40); assay: FACS, blocking of biotin-human OX40L on CHO-K1/hu OX40 cells

T2 sequence (P25942 21-277): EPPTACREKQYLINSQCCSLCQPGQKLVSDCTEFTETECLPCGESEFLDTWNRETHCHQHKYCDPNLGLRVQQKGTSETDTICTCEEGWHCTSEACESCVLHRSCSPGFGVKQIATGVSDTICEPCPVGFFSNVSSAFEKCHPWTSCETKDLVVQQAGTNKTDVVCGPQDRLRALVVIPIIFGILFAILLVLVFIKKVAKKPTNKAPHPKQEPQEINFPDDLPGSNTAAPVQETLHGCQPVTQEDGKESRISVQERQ

EC50, HEK293/OX40/NF-kb luciferase reporter [1]: 5.37 nM
Maximum fluorescence signal value, HEK293/OX40/NF-kb luciferase reporter [1]: 137000 luminescence
binding result [2]: no binding
Kd [3]: 4.16 nM
koff [3]: 0.000156 s⁻¹
kon [3]: 37400 M⁻¹ s⁻¹
Kd [4]: 19.2 nM
koff [4]: 0.000475 s⁻¹
kon [4]: 24800 M⁻¹ s⁻¹
IC50 [5]: 166 nM
Maximum inhibition rate (%) [5]: 64%
B1: PR002067 (antibody, human IgG1, V domains shown)
VH: EVQLLESGGGLVQPGGSLRLSCAASGFTFSSYAMSWVRQAPGKGLEWVSAISGRGGSTFYADSVRGRFTISRDNSKNTLYLQMNSLRAEDTAMYYCVDGTTGTTDVDYWGQGTLVTVSS
notes: no light chain; also called anti-OX40 HCAb antibody
